From paper doi:10.1101/2022.02.11.480038 (2022)
Where no end group is shown, it is not given here. [ ]: non-standard residue; d: D form. pS = N[C@@H](COP(=O)(O)O)C(=O)O

B1: Human GABARAP (residues 1-116) (natural protein)
chain: MKFVYKEEHPFEKRRSEGEKIRKKYPDRVPVIVEKAPKARIGDLDKKKYLVPSDLTVGQFYFLIRKRIHLRAEDALFFFVNNVIPPTSATMGQLYQEHHEEDFFLYIAYSDESVYG

How the values were obtained:
Assay in all cases: ITC
[1] = target: Human LC3B (residues 1-120) (human, UniProt Q9GZQ8 1-120)
[2] = target: B1
[3] = target: Y5F H9A K48A
[4] = target: GABARAP Y5F H9A mutant (human, UniProt O95166 1-116, Y5F | H9A)
Chain of GABARAP Y5F H9A mutant (O95166 1-116 Y5F/H9A): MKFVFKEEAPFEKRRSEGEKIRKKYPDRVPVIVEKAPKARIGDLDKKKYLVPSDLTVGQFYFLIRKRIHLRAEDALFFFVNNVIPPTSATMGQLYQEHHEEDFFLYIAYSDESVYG

[5] = target: TEX264 269-278 S271A,S272A

Kd [1] | Kd [2] | Kd [3] | Kd [4] | Kd [5] | Binder
39 µM | 61 µM | – | – | – | SGASGSSFEELDL [TEX264 LIR peptide (residues 266-278), unphosphorylated]
6.8 µM | 2.2 µM | – | – | – | DGDDFEELDL [phosphomimetic TEX264^(S269D, S271D, S272D) peptide (3SD-LIR)]
5 µM | 2.2 µM | – | – | – | EGEEFEELDL [phosphomimetic TEX264^(S269E, S271E, S272E) peptide (3SE-LIR)]
0.37 µM | 0.52 µM | 30 µM | 2.2 µM | – | SG[pS][pS]FEELDL [phosphorylated TEX264 LIR (residues 269-278 with p-S271,p-S272)]
0.57 µM | 2.1 µM | – | – | – | SGS[pS]FEELDL [TEX264 peptide (residues 269-278) with S272 phosphorylation (p-S272)]
0.25 µM | 0.25 µM | – | – | – | [pS]G[pS][pS]FEELDL [TEX264 peptide (residues 269-278) with p-S269, p-S271, p-S272]
– | – | – | – | 72 µM | B1
5.2 µM | 2.3 µM | – | – | – | SGEEFEELDL [phosphomimetic TEX264^(S271, 272E) peptide (2SE-LIR)]
22 µM | 9.3 µM | – | – | – | [pS]GASGSSFEELDL [TEX264 LIR peptide (residues 266-278) with S266 phosphorylation (p-S266)]
21 µM | 47 µM | – | – | – | SGSSFEELDL [TEX264 LIR peptide (residues 269-278), unphosphorylated wild type]
7.6 µM | 2.1 µM | – | – | – | SGDDFEELDL [phosphomimetic TEX264^(S271D, S272D) peptide (2SD-LIR)]
